These results are taken from PMC5334639, “Nucleophosmin Interacts with PIN2/TERF1-interacting Telomerase Inhibitor 1 (PinX1) and Attenuates the PinX1 Inhibition on Telomerase Activity” (Scientific Reports, 2017).

The target of assay [1] is T1, nucleophosmin (NPM), purified wild type (UniProt P06748 1-294).
T1 construct: nucleophosmin, wild type, cloned into pRSETA-HisSumo; HisSumo tag removed by Sumo protease; Truncations end at aa294; also called wild-type NPM; purified NPM; source: E. coli BL21(DE3)-pLysS, purified (HisTrap HP, gel filtration)
The experiment in a line: pull-down; purified NPM (2 mg) immobilised on a 1 ml HiTrap NHS-activated column; 1 mg PinX1 truncation in PBS, 30 min at room temperature; washed with PBS, eluted with PBS with 1.5 M NaCl; SDS-PAGE. The following applies: both partners purified.

For assay [2], the target named is T2, PIN2/TERF1-interacting telomerase inhibitor 1 (PinX1), purified wild type (UniProt Q96BK5 1-328).
T2 construct: PinX1, wild type, cloned into pGEX-6p-2; GST removed by PreScission protease; PinX1-C ends at aa328; also called purified PinX1; source: E. coli BL21(DE3)-pLysS, purified (Glutathione Sepharose, gel filtration)
T2 sequence (looked up): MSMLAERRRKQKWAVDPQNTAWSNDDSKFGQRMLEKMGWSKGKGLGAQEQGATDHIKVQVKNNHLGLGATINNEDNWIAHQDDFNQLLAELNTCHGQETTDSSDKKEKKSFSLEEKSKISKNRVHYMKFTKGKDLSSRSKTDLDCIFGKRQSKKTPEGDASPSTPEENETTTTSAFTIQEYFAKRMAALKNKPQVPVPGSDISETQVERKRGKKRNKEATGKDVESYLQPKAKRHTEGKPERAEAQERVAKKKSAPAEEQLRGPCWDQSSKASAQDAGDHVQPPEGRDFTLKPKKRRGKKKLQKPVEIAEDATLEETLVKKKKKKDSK
The assay can be described thus: pull-down; purified PinX1 (3 mg) immobilised on a 1 ml HiTrap NHS-activated column; 1 mg NPM or NPM variant in PBS, 30 min at room temperature; washed with PBS, eluted with PBS with 1.5 M NaCl; SDS-PAGE. Conditions: both partners purified.

B1: PinX1-C (aa254–328), purified (domain or fragment, UniProt Q96BK5 254-328, looked up)
chain: SAPAEEQLRGPCWDQSSKASAQDAGDHVQPPEGRDFTLKPKKRRGKKKLQKPVEIAEDATLEETLVKKKKKKDSK
notes: PinX1 residues 254-328; source: E. coli BL21(DE3)-pLysS, purified (Glutathione Sepharose, gel filtration)
As to B1, the binding result in assay [1] is reported as “binds”.

B2: NPM 1–123 (domain or fragment, UniProt P06748 1-123, looked up)
chain: MEDSMDMDMSPLRPQNYLFGCELKADKDYHFKVDNDENEHQLSLRTVSLGAGAKDELHIVEAEAMNYEGSPIKVTLATLKMSVQPTVSLGGFEITPPVVLRLKCGSGPVHISGQHLVAVEEDA
notes: source: E. coli BL21(DE3)-pLysS, purified (HisTrap HP, gel filtration)
In the case of B2, the binding result in assay [2] is reported as “binds”.
